Results reported in patent US20120253008A1 (Ablynx, published 2012).

B1: 59A5 (peptide)
peptide: AARWWDYDVFGGGTPVGG
B2: 59H10 (peptide)
peptide: AARYWDFDVFGGGSPVGG
B3: 59C8 (peptide)
peptide: AARYWDWDVFGGGTPVGG
B4: 59B2 (peptide)
peptide: AARFWDYDVFGGGTPVGG
B5: 59B3 (peptide)
peptide: AARYWDFDAFGGGTPVGG
B6: 60E6 (peptide)
peptide: AARYWDYDVFGGGTPVDG
B7: 60F1 (peptide)
peptide: AARYWDYDVFGGGSQVGG
B8: 60G5 (peptide)
peptide: AARYWDYDVFGGGSPVGG
B9: PMP56A4 (peptide)
peptide: AAFYMDYDVFGGGTPRGQ
B10: PMP56B6 (peptide)
peptide: AAVYWDYDVFGGGTSLGD
B11: PMP54H1 (peptide)
peptide: AASYLDYDVFGGGTPFGE
B12: PMP56A2 (peptide)
peptide: AAPYHDYDVFGGGTPVGE
B13: PMP54G3 (SEQ ID NO: 49) (peptide)
peptide: AALYRDYDVFGGGTQVGE
B14: PMP56E6 (peptide)
peptide: AARYYDYDVFGGGTPLGG
B15: PMP56E3 (peptide)
peptide: AARYYDYDVFGGGTPLGA
B16: PMP56C3 (peptide)
peptide: AARYYDYDVFGGGTPLGA
B17: PMP56E5 (peptide)
peptide: AARYYDYDVFGGGTPLGA
B18: PMP56F5 (peptide)
peptide: AARYYDYDVFGGGTPLGG
B19: PMP56G3 (peptide)
peptide: AAFYWDYDVFGGGTDPGA
B20: PMP54E3 (peptide)
peptide: AATYLDYDVFGGGTPDGR
B21: PMP56F3 (peptide)
peptide: AAWYFDYDVFGGGTADGE
B22: PMP54D3 (peptide)
peptide: AARYLDYDVFGGGTQLGS
B23: PMP56C6 (peptide)
peptide: AARYPDYDVFGGGTPSGG
B24: PMP54C2 (peptide)
peptide: AARYPDYDVFGGGTPVGG
B25: PMP56A1 (peptide)
peptide: AADYYDYDVFGGGTSVGE
B26: PMP56C2 (peptide)
peptide: AARYWDYDVFGGGTPQGE
B27: PMP56D4 (peptide)
peptide: AALYKDYDVFGGGTPGGE
B28: PMP56G1 (peptide)
peptide: AAYYFDYDVFGGGTPEGT
B29: PMP54B2 (peptide)
peptide: AARYYDYDVFGGGTVVGE
B30: PMP56C1 (peptide)
peptide: AAYYFDYDVFGGGTPEGT
B31: PMP56C5 (peptide)
peptide: AAMYYDYDVFGGGTPTGA
B32: PMP56F1 (peptide)
peptide: AAWYTDYDVFGGGTPQGG
B33: PMP54E2 (peptide)
peptide: AALYRDYDVFAGGTPGGG
B34: PMP54D2 (peptide)
peptide: AARYFDYDVFGGGTDLGD
B35: PMP56H6 (peptide)
peptide: AAWYFDYDVFGGGTADGE
B36: PMP54G2 (peptide)
peptide: AAIYRDYDVFGGGTPLGQ
B37: PMP56B3 (peptide)
peptide: AAVYDDYDVFGGGTPVGG
B38: PMP56F6 (peptide)
peptide: AALYRDYDVFGGGTPVGG
B39: PMP56B5 (peptide)
peptide: AALYRDYDVFGGGTPVGG
B40: PMP54G3 (SEQ ID NO: 44) (peptide)
peptide: AAYYYDYDVFGGGTPGGE
B41: PMP54E1 (peptide)
peptide: AAFYRDYDVFGGGTGSGN
B42: PMP56B2 (peptide)
peptide: AARYFDYDVFGGGTPAGD
B43: PMP54F3 (peptide)
peptide: AARYLDYDVFGGGTDVGS
B44: PMP54B1 (peptide)
peptide: AAWYRDYDVFGGGTDEGS
B45: PMP54C1 (peptide)
peptide: AARYYDYDVFGGGTRSGE
B46: PMP56H3 (peptide)
peptide: AAFYWDYDVFGGGTDPGA
B47: PMP54F2 (peptide)
peptide: AALYGDYDVFGGGTPLGE
B48: PMP56B1 (peptide)
peptide: AARYWDYDVFGGGTPQGE
B49: PMP56G6 (peptide)
peptide: AARYYDYDVFGGGTPLGG
B50: PMP56G2 (peptide)
peptide: AARYWDYDVFGGGTDPGG
B51: PMP56A6 (peptide)
peptide: AARYYDYDVFGGGTAGGQ
B52: PMP54C3 (peptide)
peptide: AARYLDYDVFGGGTPIGE
B53: PMP56D5 (peptide)
peptide: AATYYDYDVFGGGTPLGQ
B54: PMP56E1 (peptide)
peptide: AAYYYDYDVFGGGTPGGE
B55: PMP56H1 (peptide)
peptide: AAWYRDYDVFGGGTPLGA
B56: PMP54H3 (peptide)
peptide: AASYRDYDVFGGGTPRGW
B57: PMP54G1 (peptide)
peptide: AATYFDYDVFGGGTAVGS
B58: PMP56A5 (peptide)
peptide: AAYYRDYDVFGGGTPVGE
B59: PMP56G5 (peptide)
peptide: AAAYLDYDVFGGGTPVGG
B60: PMP54H2 (peptide)
peptide: AAAYWDYDVFGGGTSAGT

What follows are binders tested against T1, human serum albumin (human, UniProt P02768 25-609) (assay: phage ELISA, phage titration on coated HSA, near-infrared fluorescence).
T1 construct: also called HSA
Protocol: 5-fold serial dilutions of phage clones (starting from ˜5×10¹¹ phage) were added to 96-well Nunc Maxisorp plates coated with human serum albumin (2 μg/ml in PBS, overnight at 4° C.; plates were blocked with Superblock T20 (Pierce) for 1 h at room temperature). […] The amount of IRDye bound was measured on Odyssey (LI-COR Biosciences). The dilution of phage was plotted against measured near-infrared fluorescence intensity (FIG. 2).
After respectively three and four selection rounds, monoclonal phage were screened for binding on HSA, in the manner described in Example 2. Clones that bind to HSA (FIGS. 7A to 7C and Table V) were screened in phage competition ELISA, in the manner described in Example 5. The ratio of phage binding was calculated by the following equation: fluorescence signal of well with 2 μM competitor/fluorescence signal of well with no competitor (Table VI).

Binding result, binds:
B1
B2
B3
B4
B5
B6
B7
B8

What follows are binders tested against T1, human serum albumin (assay: phage ELISA and/or solution binding competition ELISA on HSA).

Binding result, binds:
B9
B10
B11
B12
B13
B14
B15
B16
B17
B18
B19
B20
B21
B22
B23
B24
B25
B26
B27
B28
B29
B30
B31
B32
B33
B34
B35
B36
B37
B38
B39
B40
B41
B42
B43
B44
B45
B46
B47
B48
B49
B50
B51
B52
B53
B54
B55
B56
B57
B58
B59
B60
